Results reported in the Human Domainome abundance scans (Beltran et al. 2025).

B1: Dynamin-binding protein, residues 242 to 304; numbered along this chain, Q6XZF7 (parent)
chain: EEPGTYGVALYRFQALEPNELDFEVGDKIRILATLEDGWLEGSLKGRTGIFPYRFVKLCPDTR
B2: Retinoic acid receptor beta, residues 85 to 161; numbered along this chain, P10826 (parent)
chain: YKPCFVCQDKSSGYHYGVSACEGCKGFFRRSIQKNMIYTCHRDKNCVINKVTRNRCQYCRLQKCFEVGMSKESVRND

Variants of: B1
Test: abundance fitness (aPCA) (normalised: wild type 0, dead -1); higher = more abundant; growth selection in yeast, the domain comes from the species named
Conditions: Homo sapiens

Abundance fitness of substitutions, site by site:
R12: N 0.009, S -0.12, E -0.469, V -0.508, C -0.477, Y -0.834, P -0.126, M -0.589, T -0.237, I -0.737, Q -0.821, K -0.276, A 0.177, L -0.637, G -0.071, H -0.446, F -0.91
E2: D -0.151, R -0.321, Q -0.498, I -0.013, S -0.567, L -0.011, K -0.512, A -0.586, W 0.044, N 0.016, Y 0.015, V -0.228, C -0.367, G -0.166, H 0.127, M -0.049, T -0.024
T5: S -0.282, A -0.083, I -0.183, L 0.052, F -0.057, W -0.132, E -0.61, Q 0, R -0.225, N -0.3, Y -0.214, K -0.253, D -0.587, G -0.765, C -0.143
P3: M 0.207, Q -0.026, S 0.008, Y 0.053, R -0.114, G -0.222, T 0.126, I 0.273, K 0.18, W -0.19, V -0.169, E -0.033, H 0.088, A -0.337, C -0.221, F 0.059, L 0.108
G4: F 0.009, N -0.032, Q 0.059, R -0.187, V 0.008, M 0.283, H 0.131, Y -0.044, C -0.135, K -0.211, L -0.05, I 0.078, T 0.103, A -0.095, P 0.214, D -0.004, W -0.312, E 0.622
L10: D -0.679, P -0.7, G -0.743, I 0.028, N -0.827, S -0.457, E -0.655, H -0.566, M 0.048, W -0.397, F -0.873, Q -0.564, A -0.761, C -0.477, K -0.384, V -0.252
Y6: R -0.712, N -0.785, C -0.502, F 0.071, Q -0.927, K -0.653, W -0.498, E -0.718, M -0.394, S -0.672, T -0.45, H -0.498, V -0.135, L -0.309, I -0.123, D -0.754, G -0.696
V8: H -0.321, K -0.427, E -0.206, F -0.373, W -0.738, I 0.064, S -0.701, P -0.865, L -0.192, G -0.779, C -0.531, Y -0.028, T -0.047, A -0.691, D -0.717, Q -0.449, N -0.681, R -0.302
G7: R -0.781, Y -0.661, E -0.209, F -0.734, P -0.86, Q -0.258, S -0.292, D -0.857, A 0.36, N -0.719, C 0.231, W -1.27, V 0.006
E1: N -0.337, M -0.02, T -0.111, Y -0.23, K 0.009, S -0.112, H -0.8, G -0.163, R -0.063, L -0.041, D -0.369, I 0.005, V -0.001, A -0.512, C -0.189, F -0.277
A9: E -0.73, H -0.967, G -0.443, N -0.812, V -0.853, Q -0.821, C -0.771, K -0.824, I -0.737, R -0.816, L -0.662, Y -0.578, W -0.6, T -0.623, P -0.752, D -1.01, S -0.566
Y11: A 0.217, I -0.14, V -0.086, T 0.044, H 0.022, E -0.02, K 0.343, L -0.084, S -0.196, G -0.429, N -0.137, D -0.281, F 0.01, Q 0.026, R 0.206, P -0.784, M -0.024, C -0.124
F13: D -0.585, H 0.559, A -0.804, G -0.677

Variants of: B2
Test: as above
Conditions: Homo sapiens

Abundance fitness of substitutions, site by site:
N76: C -0.105, L 0.013, V 0.047, E 0.194, M -0.061, H -0.144, A 0.084, F -0.012, T -0.15, K 0.01, R -0.039, G -0.048, Y 0.046, Q 0.058, P 0.146, S 0.148, D 0.018, I -0.149
S73: Y -0.231, Q -0.043, E 0.091, D 0.133, G 0.017, P 0.002, W -0.091, V 0.001, M 0.092, T -0.106, R 0.016, A 0.1, K 0.131, H -0.061, L 0.088, F -0.016
E72: W -0.271, D 0.127, Q -0.134, T -0.004, G -0.128, A -0.113, F -0.337, N 0.04, M -0.098, S -0.037, I -0.184, K -0.191, L -0.237, V -0.163, H -0.117, P -0.101, R -0.151, C -0.075
K71: I -0.078, S -0.005, G -0.004, L -0.027, V -0.151, H -0.24, T 0.067, M -0.104, W -0.139, E 0.103, P -0.154, Q -0.007, A -0.027, C -0.148, D -0.085, Y -0.216, F -0.189, R -0.102, N -0.04
D77: H 0.087, R -0.194, M 0.007, Y 0.044, W -0.347, Q 0.066, T -0.348, F -0.183, P 0.096, E 0.125, V -0.054, S -0.093, K -0.082, A -0.126, I -0.06, L -0.202, N -0.333
V74: P -0.068, M -0.027, C 0.003, S -0.035, K -0.219, I 0.036, F -0.064, T -0.012, Q -0.012, G -0.081, D 0.094, R -0.188, L -0.018, H -0.13, Y -0.297, N -0.067, W -0.14
R75: D -0.051, W 0.065, E 0.124, P 0.039, L 0.102, K -0.018, Y 0.118, G 0.09, V 0.046, H 0.078, N 0.073, A 0.137, T -0.02, Q 0.163, C 0.175, F -0.187, S -0.045
S70: R -0.053, P -0.304, M -0.115, L 0.071, Y -0.291, Q -0.009, T 0.067, V 0.038, W -0.417
